Numbered stars: 1 amine (or outer) side, 2 acyl side, 3 side chain; on linkers, the order of the positions; unused ones are H or OH. Bridge positions count the residues as written; N and C are the ends. Square brackets hold non-standard residues; d marks the D form. Ends that are not written are not given here. Peptide text beside a SMILES is read from it. * marks the point of attachment. PR3 = (R)-N-(acetyl)-2-(2'-propenyl)proline, C=CC[C@@]1(C(=O)*)CCCN1C(C)=O; S3 = α-methyl,α-allylglycine, C=CC[C@](C)(N[*:1])C(=O)[*:2]; X1 = O=C([C@]1(CCCC=[*:3])CCCN1[*:1])[*:2]; X2 = O=C([C@]1(CC=[*:3])CCCN1[*:1])[*:2]; X3 = C[C@@](CC=[*:3])(N[*:1])C(=O)[*:2]; S8 = C=CCCCCCC[C@](C)(N)C(=O)O; R5 = C=CCCC[C@@](C)(N)C(=O)O; S5 = C=CCCC[C@](C)(N)C(=O)O

One series in a line: circular dichroism. The conditions noted are these: 50 mM sodium phosphate (stated for FIG. 5; assumed for the rest), pH 8.0.
Series [1] is described as follows: Variable temperature CD measurement of α-helix stability. Type of series: physicochemical. The following applies: 20° C. to 90° C.; 50 mM sodium phosphate buffer (pH 8.0), alone and with 100 mM NaCl, 1 M NaCl, and 10% TFE. The text has this: These observations indicate that the proline stapled peptides adopt an α-helix conformation with extraordinary stability.

Series [2] in a line: CD measurements of peptide conformation and % helicity. The following applies: 20° C. It counts as physicochemical. The text has this: The conformation of peptide 1 and 2 was investigated by CD measurements (FIG. 4).
(Peptide 1 of FIG. 2 corresponds to Peptide “1)” of FIG. 17, while Peptide 2 of FIG. 2 corresponds to Peptide “4)” of FIG. 17).

For the compound `CC(=O)N1CCC[C@]12CC=CCCCC1(CCCC=CCCCCCC[C@@](C)(C(=O)N[C@@H](C)C(=O)N[C@@H](C)C(=O)N[C@@H](Cc3c[nH]c4ccccc34)C(N)=O)NC(=O)[C@H]([C@@H](C)O)NC(=O)[C@H](CC(N)=O)NC(=O)[C@H](CCCNC(=N)N)NC(=O)[C@H](C)NC(=O)[C@H](CCCNC(=N)N)NC(=O)[C@H](CCCCN)NC1=O)NC(=O)[C@H](C)NC(=O)[C@H](C)NC2=O` (stereo partly drawn), the helicity in “circular dichroism” (ns °C) is 81%.
In turn, `CC(=O)N1CCC[C@]12CC=CCCCC1(CCCC=CCCC[C@](C)(C(=O)N[C@@H](CC(N)=O)C(=O)N[C@H](C(=O)N[C@@H](CCC(=O)O)C(=O)N[C@@H](C)C(=O)N[C@@H](C)C(=O)N[C@@H](Cc3c[nH]c4ccccc34)C(N)=O)[C@@H](C)O)NC(=O)[C@H](C)NC(=O)[C@H](CCCNC(=N)N)NC(=O)[C@H](CCCCN)NC1=O)NC(=O)[C@H](C)NC(=O)[C@H](C)NC2=O` (stereo partly drawn) showed a helicity in “circular dichroism” (ns °C) of 47%.
The same measure, in the same setting: the same measure for `CC(=O)N1CCC[C@]12CC=CC[C@@](C)(C(=O)N[C@@H](CCCCN)C(=O)N[C@@H](CCCNC(=N)N)C(=O)N[C@@H](C)C(=O)N[C@@H](CCCNC(=N)N)C(=O)N[C@@H](CC(N)=O)C(=O)N[C@H](C(=O)N[C@@H](CCC(=O)O)C(=O)N[C@]1(C)CC=CCCNC(=O)[C@H](Cc3c[nH]c4ccccc34)NC(=O)[C@H](C)NC1=O)[C@@H](C)O)NC(=O)[C@H](C)NC(=O)[C@H](C)NC2=O`: 64%; for `CC(=O)N1CCC[C@]12CC=CC[C@@](C)(C(=O)N[C@@H](CCCCN)C(=O)N[C@@H](CCCNC(=N)N)C(=O)N[C@@H](C)C(=O)N[C@@H](CCCNC(=N)N)C(=O)N[C@@H](CC(N)=O)C(=O)N[C@H](C(=O)N[C@@H](CCC(=O)O)C(=O)N[C@]1(C)CC=CCNC(=O)[C@H](Cc3c[nH]c4ccccc34)NC(=O)[C@H](C)NC1=O)[C@@H](C)O)NC(=O)[C@H](C)NC(=O)[C@H](C)NC2=O`: 64%.
Same read-out and setting: the same measure for `CC(=O)N1CCC[C@]12CC=CC[C@@](C)(C(=O)N[C@@H](CCCCN)C(=O)N[C@@H](CCCNC(=N)N)C(=O)N[C@@H](C)C(=O)N[C@@H](CCCNC(=N)N)C(=O)N[C@@H](CC(N)=O)C(=O)N[C@H](C(=O)N[C@@H](CCC(=O)O)C(=O)N[C@]1(C)CCC=CCCNC(=O)[C@H](Cc3c[nH]c4ccccc34)NC(=O)[C@H](C)NC1=O)[C@@H](C)O)NC(=O)[C@H](C)NC(=O)[C@H](C)NC2=O`: 80%; for `CC(=O)N1CCC[C@]12CC=CC[C@@](C)(C(=O)N[C@@H](CCCCN)C(=O)N[C@@H](CCCNC(=N)N)C(=O)N[C@@H](C)C(=O)N[C@@H](CCCNC(=N)N)C(=O)N[C@@H](CC(N)=O)C(=O)N[C@H](C(=O)N[C@@H](CCC(=O)O)C(=O)N[C@]1(C)CCC=CCNC(=O)[C@H](Cc3c[nH]c4ccccc34)NC(=O)[C@H](C)NC1=O)[C@@H](C)O)NC(=O)[C@H](C)NC(=O)[C@H](C)NC2=O`: 69%; for `CC(=O)N1CCC[C@]12CC=CC[C@@](C)(C(=O)N[C@@H](CCCCN)C(=O)N[C@@H](CCCNC(=N)N)C(=O)N[C@@H](C)C(=O)N[C@@H](CCCNC(=N)N)C(=O)N[C@@H](CC(N)=O)C(=O)N[C@H](C(=O)N[C@@H](CCC(=O)O)C(=O)N[C@]1(C)CCCC=CCNC(=O)[C@H](Cc3c[nH]c4ccccc34)NC(=O)[C@H](C)NC1=O)[C@@H](C)O)NC(=O)[C@H](C)NC(=O)[C@H](C)NC2=O`: 73%.
Same read-out and setting: the same measure for `CC(=O)N[C@]1(C)CCCC=CCCCCCC[C@@](C)(C(=O)N[C@@H](CC(N)=O)C(=O)N[C@H](C(=O)N[C@@H](CCC(=O)O)C(=O)N[C@@H](C)C(=O)N[C@@H](C)C(=O)N[C@@H](Cc2c[nH]c3ccccc23)C(N)=O)[C@@H](C)O)NC(=O)[C@H](C)NC(=O)[C@H](CCCNC(=N)N)NC(=O)[C@H](CCCCN)NC(=O)[C@H](CC(C)C)NC(=O)[C@H](C)NC(=O)[C@H](C)NC1=O` (Ac-[R5]AALKRA[S8]NTEAAW-NH2; staple 1-8): 48%; for `CC(=O)N1CCC[C@]12CCCC=CCCCCCC[C@@](C)(C(=O)N[C@@H](CC(N)=O)C(=O)N[C@H](C(=O)N[C@@H](CCC(=O)O)C(=O)N[C@@H](C)C(=O)N[C@@H](C)C(=O)N[C@@H](Cc1c[nH]c3ccccc13)C(N)=O)[C@@H](C)O)NC(=O)[C@H](C)NC(=O)[C@H](CCCNC(=N)N)NC(=O)[C@H](CCCCN)NC(=O)[C@H](CC(C)C)NC(=O)[C@H](C)NC(=O)[C@H](C)NC2=O` (Ac-[X1]AALKRA[S8]NTEAAW-NH2; staple 1-8): 61%.
Consider `CC(=O)N1CCC[C@]12C/C=C\CCC[C@@](C)(C(=O)N[C@@H](CCCCN)C(=O)N[C@@H](CCCNC(=N)N)C(=O)N[C@@H](C)C(=O)N[C@@H](CCCNC(=N)N)C(=O)N[C@@H](CC(N)=O)C(=O)N[C@H](C(=O)N[C@@H](CCC(=O)O)C(=O)N[C@@H](C)C(=O)N[C@@H](C)C(=O)N[C@@H](Cc1c[nH]c3ccccc13)C(N)=O)[C@@H](C)O)NC(=O)[C@H](C)NC(=O)[C@H](C)NC2=O` (Ac-[X2]AA[S5]KRARNTEAAW-NH2; staple (Z) 1-4), for which the helicity in “circular dichroism” (20 °C) turned out to be 44%.
`CC(=O)N1CCC[C@]12CC=CC[C@@](C)(C(=O)N[C@@H](C)C(=O)N[C@@H](C)C(=O)N[C@@H](C)C(=O)N[C@@H](Cc1c[nH]c3ccccc13)C(N)=O)NC(=O)[C@H](C)NC(=O)[C@H](C)NC2=O` (Ac-[X2]AA[X3]AAAW-NH2; staple 1-4) registered a helicity in “circular dichroism” (ns °C) of 70%.
`CC(=O)N1CCC[C@]12C/C=C\C[C@@](C)(C(=O)N[C@@H](CCCCN)C(=O)N[C@@H](CCCNC(=N)N)C(=O)N[C@@H](C)C(=O)N[C@@H](CCCNC(=N)N)C(=O)N[C@@H](CC(N)=O)C(=O)N[C@H](C(=O)N[C@@H](CCC(=O)O)C(=O)N[C@@H](C)C(=O)N[C@@H](C)C(=O)N[C@@H](Cc1c[nH]c3ccccc13)C(N)=O)[C@@H](C)O)NC(=O)[C@H](C)NC(=O)[C@H](C)NC2=O` (Ac-[X2]AA[X3]KRARNTEAAW-NH2; staple (Z) 1-4): in “circular dichroism” (20 °C), the helicity came out at 66%.
For “peptide 2: Pro-locked peptide with partial basic region of GCN4, crosslink between PR3 and S3; Peptide "4)" of FIG. 17 (SEQ ID NO:2) ([PR3]AA[S3]KRARNTEAAW; staple 1-4; also: olefin Z-isomer)”, the “α-helix conformation on heating” value in series [1] was “completely maintained”. Also, in series [2], the “% helicity” value turned out to be 67% and the “conformation by CD” value is “(X-helix”.

The values above are taken from patent publication US9617309B2, “Proline-locked stapled peptides and uses thereof” (President and Fellows of Harvard College, priority 2012, dated 2017).
